First the molecules themselves.
B1: Serine/threonine-protein kinase Nek2 (Homo sapiens), P51955 (parent)
chain: MPSRAEDYEVLYTIGTGSYGRCQKIRRKSDGKILVWKELDYGSMTEAEKQMLVSEVNLLRELKHPNIVRYYDRIIDRTNTTLYIVMEYCEGGDLASVITKGTKERQYLDEEFVLRVMTQLTLALKECHRRSDGGHTVLHRDLKPANVFLDGKQNVKLGDFGLARILNHDTSFAKTFVGTPYYMSPEQMNRMSYNEKSDIWSLGCLLYELCALMPPFTAFSQKELAGKIREGKFRRIPYRYSDELNEIITRMLNLKDYHRPSVEEILENPLIADLVADEQRRNLERRGRQLGEPEKSQDSSPVLSELKLKEIQLQERERALKAREERLEQKEQELCVRERLAEDKLARAENLLKNYSLLKERKFLSLASNPELLNLPSSVIKKKVHFSGESKENIMRSENSESQLTSKSKCKDLKKRLHAAQLRAQALSDIEKNYQLKSRQILGMR

This note sets out measurements from IntAct's records for PubMed 23288039.

Variants of B1 are the subject of this test. Particulars: with apc4_human ANAPC4, Q9UJX5.
Chain of apc4_human ANAPC4, Q9UJX5 (Q9UJX5 whole entry): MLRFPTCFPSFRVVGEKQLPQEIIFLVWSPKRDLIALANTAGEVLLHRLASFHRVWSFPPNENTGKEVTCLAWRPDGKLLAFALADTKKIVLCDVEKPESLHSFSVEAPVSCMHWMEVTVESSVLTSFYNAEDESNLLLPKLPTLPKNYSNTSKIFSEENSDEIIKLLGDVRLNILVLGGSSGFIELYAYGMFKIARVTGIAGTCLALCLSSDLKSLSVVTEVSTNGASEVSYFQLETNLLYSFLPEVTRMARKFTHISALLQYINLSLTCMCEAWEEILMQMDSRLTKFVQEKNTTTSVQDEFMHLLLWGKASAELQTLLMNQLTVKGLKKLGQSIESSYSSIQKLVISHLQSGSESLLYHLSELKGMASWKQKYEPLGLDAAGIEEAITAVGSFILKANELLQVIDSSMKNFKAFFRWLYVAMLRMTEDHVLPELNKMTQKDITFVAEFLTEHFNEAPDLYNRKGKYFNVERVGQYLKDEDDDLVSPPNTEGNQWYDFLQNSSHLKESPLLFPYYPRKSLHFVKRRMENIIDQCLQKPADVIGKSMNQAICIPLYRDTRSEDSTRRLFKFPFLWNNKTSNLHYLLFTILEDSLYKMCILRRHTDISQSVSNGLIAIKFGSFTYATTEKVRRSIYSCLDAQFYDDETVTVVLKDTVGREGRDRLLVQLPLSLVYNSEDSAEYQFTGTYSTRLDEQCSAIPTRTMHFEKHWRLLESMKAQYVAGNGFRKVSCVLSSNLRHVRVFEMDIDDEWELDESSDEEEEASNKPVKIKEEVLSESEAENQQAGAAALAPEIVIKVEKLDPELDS
As to MPSRAEDYEVLYTIGTGSYGRCQKIRRKSDGKILVWKELDYGSMTEAEKQMLVSEVNLLRELKHPNIVRYYDRIIDRTNTTLYIVMEYCEGGDLASVITKGTKERQYLDEEFVLRVMTQLTLALKECHRRSDGGHTVLHRDLKPANVFLDGKQNVKLGDFGLARILNHDTSFAKTFVGTPYYMSPEQMNRMSYNEKSDIWSLGCLLYELCALMPPFTAFSQKELAGKIREGKFRRIPYRYSDELNEIITRMLNLKDYHRPSVEEILENPLIADLVADEQRRNLERRGRQLGEPEKSQDSSPVLSELKLKEIQAQERERALKAREERLEQKEQELCVRERLAEDKLARAENLLKNYSLLKERKFLSLASNPELLNLPSSVIKKKVHFSGESKENIMRSENSESQLTSKSKCKDLKKRLHAAQLRAQALSDIEKNYQLKSRQILGMR [L313A], the “effect of a mutation on the interaction” value is “decreasing interaction”.

In the case of MPSRAEDYEVLYTIGTGSYGRCQKIRRKSDGKILVWKELDYGSMTEAEKQMLVSEVNLLRELKHPNIVRYYDRIIDRTNTTLYIVMEYCEGGDLASVITKGTKERQYLDEEFVLRVMTQLTLALKECHRRSDGGHTVLHRDLKPANVFLDGKQNVKLGDFGLARILNHDTSFAKTFVGTPYYMSPEQMNRMSYNEKSDIWSLGCLLYELCALMPPFTAFSQKELAGKIREGKFRRIPYRYSDELNEIITRMLNLKDYHRPSVEEILENPLIADLVADEQRRNLERRGRQLGEPEKSQDSSPVLSELKLKEIQLQERERAAKAREERLEQKEQELCVRERLAEDKLARAENLLKNYSLLKERKFLSLASNPELLNLPSSVIKKKVHFSGESKENIMRSENSESQLTSKSKCKDLKKRLHAAQLRAQALSDIEKNYQLKSRQILGMR [L320A], the “effect of a mutation on the interaction” value is on record as “decreasing interaction”.
